Test results published in patent US20180291110A1 (Hoffmann-La Roche, published 2018).

Each binder was assayed against T1, human transferrin receptor (recombinant, for surface plasmon resonance) (human, UniProt P02786 89-760) (assay: SPR 25C).
T1 construct: also called huTfR; human transferrin receptor-biotinylated
T1 sequence (P02786 89-760 limits assumed): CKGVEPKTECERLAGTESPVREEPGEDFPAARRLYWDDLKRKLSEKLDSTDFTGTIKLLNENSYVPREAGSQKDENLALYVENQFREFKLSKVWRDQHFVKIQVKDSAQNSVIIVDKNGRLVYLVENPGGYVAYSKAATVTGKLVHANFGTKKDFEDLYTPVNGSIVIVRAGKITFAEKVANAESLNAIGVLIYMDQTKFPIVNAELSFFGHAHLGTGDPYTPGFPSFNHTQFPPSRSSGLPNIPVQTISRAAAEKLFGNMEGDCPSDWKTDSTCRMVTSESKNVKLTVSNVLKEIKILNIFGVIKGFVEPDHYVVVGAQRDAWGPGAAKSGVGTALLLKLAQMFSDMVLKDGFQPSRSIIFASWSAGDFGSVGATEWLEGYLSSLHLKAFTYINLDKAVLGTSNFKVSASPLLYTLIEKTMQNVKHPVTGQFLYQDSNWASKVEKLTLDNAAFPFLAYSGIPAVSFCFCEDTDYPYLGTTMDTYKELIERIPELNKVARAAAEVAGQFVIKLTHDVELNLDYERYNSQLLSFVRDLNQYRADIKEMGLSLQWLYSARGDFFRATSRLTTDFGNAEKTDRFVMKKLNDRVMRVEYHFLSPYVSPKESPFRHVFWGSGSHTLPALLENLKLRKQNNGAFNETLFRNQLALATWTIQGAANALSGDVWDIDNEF

Row | koff [s⁻¹] | Binder
1 | 0.00425 | 2/99 VH9/VL17 (antibody, V domains shown) VH: QQLLESGGGLVQPGGSLRLSCAASGFTFSSYAMSWVRQAPGKGLEWVGYIWSGGSTDYADSVKGRFTISRDNSKNTLYLQMNSLRAEDTAVYYCAKRYGTSYPDYGDANGFDPWGQGTLVTVSS VL: AIQLTQSPSSLSASVGDRVTITCRASQSISSYLAWYQQKPGKAPKLLIYRASTLASGVPSRFSGSGSGTDFTLTISSLQPEDFATYYCQQTYSSSNVDNTFGGGTKVEIK
2 | 0.00727 | 2/99 VH12/VL17 (antibody, V domains shown) VH: QVQLQESGPGLVKPSETLSLTCTVSGFSLSSYAMSWIRQPPGKGLEWIGYIWSGGSTDYNPSLKSRVTISVDTSKNQFSLKLSSVTAADTAVYYCARRYGTSYPDYGDANGFDPWGQGTLVTVSS VL: AIQLTQSPSSLSASVGDRVTITCRASQSISSYLAWYQQKPGKAPKLLIYRASTLASGVPSRFSGSGSGTDFTLTISSLQPEDFATYYCQQTYSSSNVDNTFGGGTKVEIK
3 | 0.000988 | 2/99 VH17/VL17 (antibody, V domains shown) VH: QQLQESGPGLVKPSETLSLTCTVSGFSLSSYAMSWVRQPPGKGLEWIGYIWSGGSTDYNPSLKSRVTISKDTSKNQVSLKLSSVTAADTAVYYCARRYGTSYPDYGDANGFDPWGPGTLVTVSS VL: AIQLTQSPSSLSASVGDRVTITCRASQSISSYLAWYQQKPGKAPKLLIYRASTLASGVPSRFSGSGSGTDFTLTISSLQPEDFATYYCQQTYSSSNVDNTFGGGTKVEIK
4 | 0.00169 | 2/99 VH15/VL17 (antibody, V domains shown) VH: QQLQESGPGLVKPSETLSLTCTVSGFSLSSYAMSWVRQPPGKGLEWIGYIWSGGSTDYNPSLKSRVTISVDTSKNQVSLKLSSVTAADTAVYYCARRYGTSYPDYGDANGFDPWGQGTLVTVSS VL: AIQLTQSPSSLSASVGDRVTITCRASQSISSYLAWYQQKPGKAPKLLIYRASTLASGVPSRFSGSGSGTDFTLTISSLQPEDFATYYCQQTYSSSNVDNTFGGGTKVEIK
5 | 0.00166 | 2/99 VH16/VL17 (antibody, V domains shown) VH: QQLQESGPGLVKPSETLSLTCTVSGFSLSSYAMSWVRQPPGKGLEWIGYIWSGGSTDYNPSLKSRVTISVDTSKNQVSLKLSSVTAADTAVYYCARRYGTSYPDYGDANGFDPWGPGTLVTVSS VL: AIQLTQSPSSLSASVGDRVTITCRASQSISSYLAWYQQKPGKAPKLLIYRASTLASGVPSRFSGSGSGTDFTLTISSLQPEDFATYYCQQTYSSSNVDNTFGGGTKVEIK
6 | 0.0053 | 2/99 VH18/VL17 (antibody, V domains shown) VH: QVQLQESGPGLVKPSQTLSLTCTVSGFSLSSYAMSWIRQHPGKGLEWIGYIWSGGSTDYAPSLKSRVTISVDTSKNQFSLKLSSVTAADTAVYYCARRYGTSYPDYGDANGFDPWGQGTLVTVSS VL: AIQLTQSPSSLSASVGDRVTITCRASQSISSYLAWYQQKPGKAPKLLIYRASTLASGVPSRFSGSGSGTDFTLTISSLQPEDFATYYCQQTYSSSNVDNTFGGGTKVEIK
7 | 0.00339 | 2/99 VH13/VL17 (antibody, V domains shown) VH: QVQLQESGPGLVKPSETLSLTCTVSGFSLSSYAMSWIRQPPGKGLEWIGYIWSGGSTDYNPSLKSRVTISVDTSKNQVSLKLSSVTAADTAVYYCARRYGTSYPDYGDANGFDPWGQGTLVTVSS VL: AIQLTQSPSSLSASVGDRVTITCRASQSISSYLAWYQQKPGKAPKLLIYRASTLASGVPSRFSGSGSGTDFTLTISSLQPEDFATYYCQQTYSSSNVDNTFGGGTKVEIK
8 | 0.000938 | 2/99 VH22/VL17 (antibody, V domains shown) VH: QSMQESGPGLVKPSQTLSLTCTVSGFSLSSYAMSWVRQHPGKGLEWIGYIWSGGSTDYASWAKSRVTISVDTSKNQVSLKLSSVTAADTAVYYCARRYGTSYPDYGDANGFDPWGQGTLVTVSS VL: AIQLTQSPSSLSASVGDRVTITCRASQSISSYLAWYQQKPGKAPKLLIYRASTLASGVPSRFSGSGSGTDFTLTISSLQPEDFATYYCQQTYSSSNVDNTFGGGTKVEIK
9 | 0.00457 | 2/99 VH20/VL17 (antibody, V domains shown) VH: QSMQESGPGLVKPSQTLSLTCTVSGFSLSSYAMSWIRQHPGKGLEWIGYIWSGGSTDYAPSLKSRVTISVDTSKNQVSLKLSSVTAADTAVYYCARRYGTSYPDYGDANGFDPWGQGTLVTVSS VL: AIQLTQSPSSLSASVGDRVTITCRASQSISSYLAWYQQKPGKAPKLLIYRASTLASGVPSRFSGSGSGTDFTLTISSLQPEDFATYYCQQTYSSSNVDNTFGGGTKVEIK
10 | 0.001 | 2/99 VH19/VL17 (antibody, V domains shown) VH: QSMQESGPGLVKPSQTLSLTCTVSGFSLSSYAMSWIRQHPGKGLEWIGYIWSGGSTDYAPSLKSRVTISVDTSKNQFSLKLSSVTAADTAVYYCARRYGTSYPDYGDANGFDPWGQGTLVTVSS VL: AIQLTQSPSSLSASVGDRVTITCRASQSISSYLAWYQQKPGKAPKLLIYRASTLASGVPSRFSGSGSGTDFTLTISSLQPEDFATYYCQQTYSSSNVDNTFGGGTKVEIK
11 | 0.000997 | 2/99 VH21/VL17 (antibody, V domains shown) VH: QSMQESGPGLVKPSQTLSLTCTVSGFSLSSYAMSWIRQHPGKGLEWIGYIWSGGSTDYASWAKSRVTISVDTSKNQVSLKLSSVTAADTAVYYCARRYGTSYPDYGDANGFDPWGQGTLVTVSS VL: AIQLTQSPSSLSASVGDRVTITCRASQSISSYLAWYQQKPGKAPKLLIYRASTLASGVPSRFSGSGSGTDFTLTISSLQPEDFATYYCQQTYSSSNVDNTFGGGTKVEIK
12 | 0.00755 | 2/99 VH11/VL17 (antibody, V domains shown) VH: QQLLESGGGLVQPGGSLRLSCAASGFSLSSYAMSWVRQAPGKGLEWVGYIWSGGSTDYADSVKGRFTISRDNSKNTLYLQMNSLRAEDTAVYYCARRYGTSYPDYGDANGFDPWGQGTLVTVSS VL: AIQLTQSPSSLSASVGDRVTITCRASQSISSYLAWYQQKPGKAPKLLIYRASTLASGVPSRFSGSGSGTDFTLTISSLQPEDFATYYCQQTYSSSNVDNTFGGGTKVEIK

What follows are binders tested against T2, Her2 ECD (amino acids 1 to 629 of matured HER2 with C-terminal avi-tag and His-tag) (human, UniProt P04626 23-652) (assay: SPR, Ab captured, Her2 analyte;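 further: ProteOn XPR36 SPR, rate constants from simultaneous fit of association and dissociation sensorgrams to a 1:1 Langmuir model, buffer-channel referenced, KD taken as koff/kon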).
T2 construct: also called purified Her2

Row | Kd [nM] | koff [s⁻¹] | kon [M⁻¹ s⁻¹] | Binder
13 | 3.66 | 0.00187 | 511000 | Pertuzumab HC x Pertuzumab (Tras.L3) G32A LC (antibody, V domains shown) VH: EVQLVESGGGLVQPGGSLRLSCAASGFTFTDYTMDWVRQAPGKGLEWVADVNPNSGGSIYNQRFKGRFTLSVDRSKNTLYLQMNSLRAEDTAVYYCARNLGPSFYFDYWGQGTLVTVSS VL: DIQMTQSPSSLSASVGDRVTITCKASQDVSIAVAWYQQKPGKAPKLLIYSASYRYTGVPSRFSGSGSGTDFTLTISSLQPEDFATYYCQQHYTTPPTFGQGTKVEIK
14 | 4.35 | 0.00192 | 440000 | Pertuzumab HC x Pertuzumab (Tras.L3) I31V LC (antibody, V domains shown) VH: EVQLVESGGGLVQPGGSLRLSCAASGFTFTDYTMDWVRQAPGKGLEWVADVNPNSGGSIYNQRFKGRFTLSVDRSKNTLYLQMNSLRAEDTAVYYCARNLGPSFYFDYWGQGTLVTVSS VL: DIQMTQSPSSLSASVGDRVTITCKASQDVSVGVAWYQQKPGKAPKLLIYSASYRYTGVPSRFSGSGSGTDFTLTISSLQPEDFATYYCQQHYTTPPTFGQGTKVEIK
15 | 3.4 | 0.0018 | 530000 | Pertuzumab HC x Pertuzumab (Tras.L3) S30N LC (antibody, V domains shown) VH: EVQLVESGGGLVQPGGSLRLSCAASGFTFTDYTMDWVRQAPGKGLEWVADVNPNSGGSIYNQRFKGRFTLSVDRSKNTLYLQMNSLRAEDTAVYYCARNLGPSFYFDYWGQGTLVTVSS VL: DIQMTQSPSSLSASVGDRVTITCKASQDVNIGVAWYQQKPGKAPKLLIYSASYRYTGVPSRFSGSGSGTDFTLTISSLQPEDFATYYCQQHYTTPPTFGQGTKVEIK
16 | 2.82 | 0.00097 | 344000 | Pertuzumab HC x Pertuzumab (Tras.L3) P96Y LC (antibody, V domains shown) VH: EVQLVESGGGLVQPGGSLRLSCAASGFTFTDYTMDWVRQAPGKGLEWVADVNPNSGGSIYNQRFKGRFTLSVDRSKNTLYLQMNSLRAEDTAVYYCARNLGPSFYFDYWGQGTLVTVSS VL: DIQMTQSPSSLSASVGDRVTITCKASQDVSIGVAWYQQKPGKAPKLLIYSASYRYTGVPSRFSGSGSGTDFTLTISSLQPEDFATYYCQQHYTTPYTFGQGTKVEIK
17 | 4.62 | 0.00211 | 457000 | Pertuzumab HC x Pertuzumab (Tras.L3) K24R LC (antibody, V domains shown) VH: EVQLVESGGGLVQPGGSLRLSCAASGFTFTDYTMDWVRQAPGKGLEWVADVNPNSGGSIYNQRFKGRFTLSVDRSKNTLYLQMNSLRAEDTAVYYCARNLGPSFYFDYWGQGTLVTVSS VL: DIQMTQSPSSLSASVGDRVTITCRASQDVSIGVAWYQQKPGKAPKLLIYSASYRYTGVPSRFSGSGSGTDFTLTISSLQPEDFATYYCQQHYTTPPTFGQGTKVEIK
18 | 6.91 | 0.00247 | 358000 | Pertuzumab HC x Pertuzumab (Tras.L3) G66R LC (antibody, V domains shown) VH: EVQLVESGGGLVQPGGSLRLSCAASGFTFTDYTMDWVRQAPGKGLEWVADVNPNSGGSIYNQRFKGRFTLSVDRSKNTLYLQMNSLRAEDTAVYYCARNLGPSFYFDYWGQGTLVTVSS VL: DIQMTQSPSSLSASVGDRVTITCKASQDVSIGVAWYQQKPGKAPKLLIYSASYRYTGVPSRFSGSRSGTDFTLTISSLQPEDFATYYCQQHYTTPPTFGQGTKVEIK
19 | 4.06 | 0.00175 | 431000 | Pertuzumab HC x Pertuzumab (Tras.L3) I31T LC (antibody, V domains shown) VH: EVQLVESGGGLVQPGGSLRLSCAASGFTFTDYTMDWVRQAPGKGLEWVADVNPNSGGSIYNQRFKGRFTLSVDRSKNTLYLQMNSLRAEDTAVYYCARNLGPSFYFDYWGQGTLVTVSS VL: DIQMTQSPSSLSASVGDRVTITCKASQDVSTGVAWYQQKPGKAPKLLIYSASYRYTGVPSRFSGSGSGTDFTLTISSLQPEDFATYYCQQHYTTPPTFGQGTKVEIK
20 | 4.87 | 0.00226 | 464000 | Pertuzumab HC x Pertuzumab (Tras.L3) R54L LC (antibody, V domains shown) VH: EVQLVESGGGLVQPGGSLRLSCAASGFTFTDYTMDWVRQAPGKGLEWVADVNPNSGGSIYNQRFKGRFTLSVDRSKNTLYLQMNSLRAEDTAVYYCARNLGPSFYFDYWGQGTLVTVSS VL: DIQMTQSPSSLSASVGDRVTITCKASQDVSIGVAWYQQKPGKAPKLLIYSASYLYTGVPSRFSGSGSGTDFTLTISSLQPEDFATYYCQQHYTTPPTFGQGTKVEIK
